# According to US20190038721A1 (Novo Nordisk, published 2019):
# Starred links: 1 amine or outer side, 2 acyl side, 3 side chain; linkers in the order of their positions; H or OH if unused. Non-standard residues stand in square brackets, D forms with d. Groups on a side chain read outwards from the residue. No end group written: not given here. *: point of attachment. 2‑(bis(3-aminopropyl)amino)acetyl = branch point, each 3-aminopropyl arm carries one of the two bracketed chains; 4‑(aminomethyl)cyclohexanecarbonyl = 4-(aminomethyl)cyclohexanecarbonyl linker unit; Undecanoyl(11-OPh(4-COOH)) = O=C(O)c1ccc(OCCCCCCCCCCC(=O)*)cc1; Decanoyl(10-(4-HOOC-PhO)) = O=C(O)c1ccc(OCCCCCCCCCC(=O)*)cc1; Decanoyl(10-O(3-COOH-Ph)) = O=C(O)c1cccc(OCCCCCCCCCC(=O)*)c1; C20 diacid = O=C(O)CCCCCCCCCCCCCCCCCCC(=O)*; γGlu = O=C(O)[C@H](CCC(=O)[*:2])N[*:1]; C14 diacid = O=C(O)CCCCCCCCCCCCC(=O)*; Palmitoyl = CCCCCCCCCCCCCCCC(=O)*; AEEA = NCCOCCOCC(=O)O; Aib = CC(C)(N)C(=O)O
# B1: N{Epsilon-37}-[2-[2-[2-[[2-[2-[2-[[(2)-2,6-bis[[2-[2-[2-[[2-[2-[2-[[2-[2-[2-[[2-[2-[2-[[(4S)-4-carboxy-4-[[4-[(19-carboxynonadecanoylamino)methyl]cyclohexanecar … (peptide)
# peptide: HWEGTFTSDVSSYLEEQAAREFIAWLVRGRK([AEEA-AEEA-2,6‑diaminohexanoyl-AEEA-AEEA-AEEA-AEEA-γGlu-4‑(aminomethyl)cyclohexanecarbonyl-C20 diacid)+(AEEA-AEEA-AEEA-AEEA-γGlu-4‑(aminomethyl)cyclohexanecarbonyl-C20 diacid])
# notes: the claim prints (2S)-2,6-bis; also called 12
# B2: Comparative Example 3A (Example 31 of WO 2012/140117) (peptide)
# chain: H[Aib]EGTFTSDVSSYLEEQAARKFIEWLVRGKGEG
# modifications: not fully specified (residues 21, 30); also: Lys21 and Lys30 acylated as, structure not given here
# Molecular target: T1, human GLP-1 receptor (human, UniProt P43220 24-463)
# Assay: cell-based or functional assay
row,Binder,"EC50 (pM), in vitro potency, CRE luciferase reporter gene assay in BHK cells [pM]"
1,"H[Aib]EGTFTSDVSSYLEEQAAREFIAWLVRGRPK (also: Lys32 acylated as, structure not given here) [Comparative Example 11A (Example 10 of WO 2016/083499)]",12.5
2,HWEGTFTSDVSSYLEEQAARK([AEEA-AEEA-γGlu-Decanoyl(10-(4-HOOC-PhO))])FIEWLVRGK([AEEA-AEEA-γGlu-Decanoyl(10-(4-HOOC-PhO))])GEG,2.7
3,H[Aib]EGTFTSDVSSYLEEQAAREFIAWLVRGRGKGGSK (also: the two extension Lys residues acylated as in the compound) [Comparative Example 9A (Example 3 of WO 2015/000942)],41.3
4,HWEGTFTSDVSSYLEGQAAK([AEEA-AEEA-γGlu-Decanoyl(10-(4-HOOC-PhO))])EFIAWLVRGRK([AEEA-AEEA-γGlu-Decanoyl(10-(4-HOOC-PhO))]),30
5,HWEGTFTSDVSSYLEEQAAREFIAWLVRGRK([Lys-AEEA-AEEA-AEEA-AEEA-AEEA-AEEA-γGlu-4‑(aminomethyl)cyclohexanecarbonyl-C20 diacid)+(AEEA-AEEA-AEEA-AEEA-AEEA-AEEA-γGlu-4‑(aminomethyl)cyclohexanecarbonyl-C20 diacid]) (also called 10),31.2
6,HWEGTFTSDVSSYLEEQAAREFIAWLVRGRK([AEEA-AEEA-2‑(bis(3-aminopropyl)amino)acetyl-AEEA-AEEA-AEEA-AEEA-γGlu-4‑(aminomethyl)cyclohexanecarbonyl-C20 diacid)+(AEEA-AEEA-AEEA-AEEA-γGlu-4‑(aminomethyl)cyclohexanecarbonyl-C20 diacid]) (also called 13) [N{Epsilon-37}-[2-[2-[2-[[2-[2-[2-[[2-[bis[3-[[2-[2-[2-[[2-[2-[2-[[2-[2-[2-[[2-[2-[2-[[(4 …],32.1
7,HGEGTFTSDVSSYLEGQAAKEFIAWLVKGRG [[Gly8]-GLP-1-(7-37)-peptide],32
8,"HWEGTFTSDVSSYLEGQAAK([γGlu-Palmitoyl])EFIAWLVRGRG [N{Epsilon-26}-[(4S)-4-carboxy-4-(hexadecanoylamino)butanoyl]-[Trp8,Arg34]-GLP-1-(7-37)-peptide]",21
9,"HPEGTFTSDVSSYLEEQAAREFIAWLVKGRG [[Pro8,Glu22,Arg26]-GLP-1-(7-37)-peptide]",0.57
10,HWEGTFTSDVSSYLEGQAAKEFIAWLVKGRG (also called 8W GLP-1(7-37)) [[Trp8]-GLP-1-(7-37)-peptide],12
11,B1,62.9
12,B2,0.53
13,HWEGTFTSDVSSYLEEQAAREFIAWLVRGRGK([AEEA-AEEA-γGlu-4‑(aminomethyl)cyclohexanecarbonyl-C20 diacid])GGSK([AEEA-AEEA-γGlu-4‑(aminomethyl)cyclohexanecarbonyl-C20 diacid]),70.5

# Molecular target: T1, human GLP-1 receptor
# Assay: competitive binding (SPA), displacement of 125I-GLP-1(7-36)NH2 from membranes with human GLP-1 receptor, high HSA (2.0% w/v)
# Method: (§1) 1. For the receptor binding assay in the presence of low HSA (0.005% (w/v)) 50 μl of the assay buffer was added to each well of an assay plate. Assay continued with step 3. 2. For the receptor binding assay in the presence of high HSA (2% (w/v)) 50 μl of the 8% (w/v) albumin stock was added to each well of an assay plate. Assay continued with step 3. 3. […] 4. Cell membrane aliquots were thawed and diluted to their working concentration. Fifty μl were added to each well in the assay plate. 5. WGA SPA beads were suspended in assay buffer at 20 mg/ml. The suspension was diluted to 10 mg/ml in assay buffer just prior to addition to the assay plate. Fifty μl were added to each well in the assay plate. 6. […] A 25 μl aliquot was reserved for measuring total counts/well. 7. The assay plate was incubated for 2 h at 30° C. 8. The assay plate was centrifuged for 10 min. 9. The assay plate was read in a Packard TopCount NXT instrument.
# (§2) Individual replicates were analysed using non-linear regression in GraphPad Prism.
row,Binder,IC50 [nM]
1,"H[Aib]EGTFTSDVSSYLEEQAAREFIAWLVRGRPK (also: Lys32 acylated as, structure not given here) [Comparative Example 11A (Example 10 of WO 2016/083499)]",34.4
2,HWEGTFTSDVSSYLEEQAARK([AEEA-AEEA-γGlu-Decanoyl(10-(4-HOOC-PhO))])FIEWLVRGK([AEEA-AEEA-γGlu-Decanoyl(10-(4-HOOC-PhO))])GEG,84.9
3,H[Aib]EGTFTSDVSSYLEEQAAREFIAWLVRGRGKGGSK (also: the two extension Lys residues acylated as in the compound) [Comparative Example 9A (Example 3 of WO 2015/000942)],235
4,HWEGTFTSDVSSYLEGQAAK([AEEA-AEEA-γGlu-Decanoyl(10-(4-HOOC-PhO))])EFIAWLVRGRK([AEEA-AEEA-γGlu-Decanoyl(10-(4-HOOC-PhO))]),771
5,HWEGTFTSDVSSYLEEQAAREFIAWLVRGRK([Lys-AEEA-AEEA-AEEA-AEEA-AEEA-AEEA-γGlu-4‑(aminomethyl)cyclohexanecarbonyl-C20 diacid)+(AEEA-AEEA-AEEA-AEEA-AEEA-AEEA-γGlu-4‑(aminomethyl)cyclohexanecarbonyl-C20 diacid]) (also called 10),123
6,HWEGTFTSDVSSYLEEQAAREFIAWLVRGRK([AEEA-AEEA-2‑(bis(3-aminopropyl)amino)acetyl-AEEA-AEEA-AEEA-AEEA-γGlu-4‑(aminomethyl)cyclohexanecarbonyl-C20 diacid)+(AEEA-AEEA-AEEA-AEEA-γGlu-4‑(aminomethyl)cyclohexanecarbonyl-C20 diacid]) (also called 13) [N{Epsilon-37}-[2-[2-[2-[[2-[2-[2-[[2-[bis[3-[[2-[2-[2-[[2-[2-[2-[[2-[2-[2-[[2-[2-[2-[[(4 …],71.6
7,HGEGTFTSDVSSYLEGQAAKEFIAWLVKGRG [[Gly8]-GLP-1-(7-37)-peptide],0.62
8,"HPEGTFTSDVSSYLEEQAAREFIAWLVKGRG [[Pro8,Glu22,Arg26]-GLP-1-(7-37)-peptide]",0.035
9,HWEGTFTSDVSSYLEGQAAKEFIAWLVKGRG (also called 8W GLP-1(7-37)) [[Trp8]-GLP-1-(7-37)-peptide],0.208
10,B1,51.8
11,B2,134
12,HWEGTFTSDVSSYLEEQAAREFIAWLVRGRGK([AEEA-AEEA-γGlu-4‑(aminomethyl)cyclohexanecarbonyl-C20 diacid])GGSK([AEEA-AEEA-γGlu-4‑(aminomethyl)cyclohexanecarbonyl-C20 diacid]),305

# Molecular target: T1, human GLP-1 receptor
# Assay: competitive binding (SPA), displacement of 125I-GLP-1(7-36)NH2 from membranes with human GLP-1 receptor, low HSA
# Method: as §1, §2
row,Binder,IC50 [nM]
1,"H[Aib]EGTFTSDVSSYLEEQAAREFIAWLVRGRPK (also: Lys32 acylated as, structure not given here) [Comparative Example 11A (Example 10 of WO 2016/083499)]",0.401
2,HWEGTFTSDVSSYLEEQAARK([AEEA-AEEA-γGlu-Decanoyl(10-(4-HOOC-PhO))])FIEWLVRGK([AEEA-AEEA-γGlu-Decanoyl(10-(4-HOOC-PhO))])GEG,1.03
3,H[Aib]EGTFTSDVSSYLEEQAAREFIAWLVRGRGKGGSK (also: the two extension Lys residues acylated as in the compound) [Comparative Example 9A (Example 3 of WO 2015/000942)],1.04
4,HWEGTFTSDVSSYLEGQAAK([AEEA-AEEA-γGlu-Decanoyl(10-(4-HOOC-PhO))])EFIAWLVRGRK([AEEA-AEEA-γGlu-Decanoyl(10-(4-HOOC-PhO))]),6.23
5,HWEGTFTSDVSSYLEEQAAREFIAWLVRGK([AEEA-AEEA-γGlu-Decanoyl(10-O(3-COOH-Ph))])K([AEEA-AEEA-γGlu-Decanoyl(10-O(3-COOH-Ph))]),0.405
6,HWEGTFTSDVSSYLEEQAAREFIAWLVRGK([AEEA-AEEA-γGlu-Undecanoyl(11-OPh(4-COOH))])K([AEEA-AEEA-γGlu-Undecanoyl(11-OPh(4-COOH))]),0.535
7,HGEGTFTSDVSSYLEGQAAKEFIAWLVKGRG [[Gly8]-GLP-1-(7-37)-peptide],2.64
8,HWEGTFTSDVSSYLEEQAAREFIAWLVRGK([AEEA-AEEA-AEEA-AEEA-γGlu-C14 diacid])K([AEEA-AEEA-AEEA-AEEA-γGlu-C14 diacid]),0.55
9,"HPEGTFTSDVSSYLEEQAAREFIAWLVKGRG [[Pro8,Glu22,Arg26]-GLP-1-(7-37)-peptide]",0.075
10,HWEGTFTSDVSSYLEGQAAKEFIAWLVKGRG (also called 8W GLP-1(7-37)) [[Trp8]-GLP-1-(7-37)-peptide],0.67
11,B2,0.26
